Data as given in patent US20200392459.

Molecular target: TALEN T3 pair (T3L/T3R) (artificial) (UniProt Q56830+Q56830)
Test: cell_activity
Conditions: CD34+ cells

FAM5C off-target locus
activity (mock 0.02%, p=0.0015, not significant in K562 or CD4+): 0.05 % indels

CNOT10 off-target locus
activity (mock 0.03%, p<0.0001, off-target): 0.25 % indels
